According to article PMC8396345:

Key:
[1] = tested on: norovirus GII.4 Sydney VLP (VP1) (Norovirus GII.4 Sydney); assay: filter binding; conditions: FRA: 1 nM 32P-aptamer, 0-1500 nM VLP, 60 min, each aptamer's original selection buffer (M1, M6-2, SMV19, SMV21: PBS pH 7.4; others in Table S1, not in material)
[2] = tested on: norovirus GII.4 New Orleans VLP (VP1) (Norovirus GII.4 New Orleans); assay: filter binding; conditions: FRA: 1 nM 32P-aptamer, 0-1500 nM VLP, 60 min, each aptamer's original selection buffer (M1, M6-2, SMV19, SMV21: PBS pH 7.4; others in Table S1, not in material)
[3] = tested on: norovirus GII.3 VLP (VP1) (Norovirus GII.3); assay: filter binding; conditions: FRA: 1 nM 32P-aptamer, 0-1500 nM VLP, 60 min, each aptamer's original selection buffer (M1, M6-2, SMV19, SMV21: PBS pH 7.4; others in Table S1, not in material)
[4] = tested on: norovirus GII.2 VLP (VP1) (Norovirus GII.2); conditions: FRA: 1 nM 32P-aptamer, 0-1500 nM VLP, 60 min, each aptamer's original selection buffer (M1, M6-2, SMV19, SMV21: PBS pH 7.4; others in Table S1, not in material); cited from earlier work
[5] = tested on: norovirus P-domain (Norovirus GII.4); assay: filter binding; conditions: FRA: 1 nM 32P-aptamer, 0-1500 nM VLP, 60 min, each aptamer's original selection buffer (M1, M6-2, SMV19, SMV21: PBS pH 7.4; others in Table S1, not in material)
[6] = tested on: norovirus P-domain (Norovirus GII.4); conditions: FRA: 1 nM 32P-aptamer, 0-1500 nM VLP, 60 min, each aptamer's original selection buffer (M1, M6-2, SMV19, SMV21: PBS pH 7.4; others in Table S1, not in material); cited from earlier work
[7] = tested on: norovirus GI.7 VLP (VP1) (Norovirus GI.7); assay: filter binding; conditions: FRA: 1 nM 32P-aptamer, 0-1500 nM VLP, 60 min, each aptamer's original selection buffer (M1, M6-2, SMV19, SMV21: PBS pH 7.4; others in Table S1, not in material)

Sequence | Kd [1] [nM] | Kd [2] [nM] | Kd [3] [nM] | Kd [4] [nM] | binding signal [5] [%] | Kd [6] [nM] | Kd [7] [nM]
GCTAGCGAATTCCGTACGAAGGGCGAATTCCACATTGGGCTGCAGCCCGGGGGATCC [AG3] | 313 | 1030 |  |  |  |  | 
TGGGAAGAGGTCCGGTAAATGCAGGGTCAGCCCGGAGAG [M6-2] | 1130 | 928 |  |  |  |  | 
CCATGTTTTGTAGGTGTAATAGGTCATGTTAGGGTTTCTG [SMV21] | 1250 | 1780 | 464 | 101 |  |  | 
GAAATTGGGTTCGGGTTTGGGTTGGGATTACTTAGCGATG [Buf-2] | 241 | 351 | 465 |  | 100 | 17 | 
GTCTGTAGTAGGGAGGATGGTCCGGGGCCCCGAGACGACGTTATCAGGC [Beier] | 71 | 105 | 115 |  |  |  | 63
CACCAGTGTGTTGAGGTTTGAGCACACTGATAGAGTGTCA [SMV19] |  | 9340 |  | 191 |  |  | 
TGTTTATGGGGATAAACGTATCTAATTCGTGTACTAATCA [M1] | 388 | 963 |  |  |  |  | 
